From article doi:10.1101/340778 (bioRxiv, 2018)

Molecular target: J-base Binding Protein 1 (JBP1) (Leishmania tarentolae (assumed; species …, UniProt Q9U6M1)
Assay: SPR

Chain of J-base Binding Protein 1 (JBP1) (Leishmania tarentolae (Q9U6M1 whole entry): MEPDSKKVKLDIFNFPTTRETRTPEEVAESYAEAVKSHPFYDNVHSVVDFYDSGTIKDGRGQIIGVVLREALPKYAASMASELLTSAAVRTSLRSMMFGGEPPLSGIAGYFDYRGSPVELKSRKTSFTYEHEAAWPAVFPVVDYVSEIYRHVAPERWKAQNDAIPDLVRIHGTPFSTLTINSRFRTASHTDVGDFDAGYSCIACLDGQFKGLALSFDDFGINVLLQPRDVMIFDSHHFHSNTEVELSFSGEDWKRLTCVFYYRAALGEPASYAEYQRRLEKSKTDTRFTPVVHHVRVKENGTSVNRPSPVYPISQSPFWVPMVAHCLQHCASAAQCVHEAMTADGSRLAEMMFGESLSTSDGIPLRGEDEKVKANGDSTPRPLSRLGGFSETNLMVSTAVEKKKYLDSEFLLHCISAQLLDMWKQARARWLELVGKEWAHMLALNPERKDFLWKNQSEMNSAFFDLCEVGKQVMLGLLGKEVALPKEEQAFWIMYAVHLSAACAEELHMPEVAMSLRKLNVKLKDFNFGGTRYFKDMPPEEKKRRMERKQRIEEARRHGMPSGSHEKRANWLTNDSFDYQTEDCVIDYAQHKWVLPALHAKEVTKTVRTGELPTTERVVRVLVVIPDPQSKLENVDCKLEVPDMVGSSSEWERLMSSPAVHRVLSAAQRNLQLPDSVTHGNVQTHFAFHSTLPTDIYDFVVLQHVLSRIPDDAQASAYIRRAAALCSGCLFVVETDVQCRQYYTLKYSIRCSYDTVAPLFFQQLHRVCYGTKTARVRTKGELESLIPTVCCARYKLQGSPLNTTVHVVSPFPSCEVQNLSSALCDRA

B1: nanobody-6 (Nb6) (VHH)
VHH: QVQLVESGGGLVQAGGSLRLSCAASGSFFSINDMGWYRQAPGKQRELVAVISSGGSTNYADSVEGRSTISSDNAKNTVYLQLSSLKPEDTAVYYCNANVRLREYRTTSYHYWGQGTQVTVSS
  Kd: 30 nM
